The data set concerns the molecule itself. Description: cryo-EM structure.

B1: CfaB, major pilin subunit of CFA/I pili (natural protein, enterotoxigenic Escherichia coli (ETEC), UniProt P0CK93 24-170, looked up)
chain: VEKNITVTASVDPAIDLLQADGNALPSAVKLAYSPASKTFESYRVMTQVHTNDATKKVIVKLADTPQLTDVLNSTVQMPISVSWGGQVLSTTAKEFEAAALGYSASGVNGVSSSQELVISAAPKTAGTAPTAGNYSGVVSLVMTLGS
In the case of B1, the binding result was “binds”.

The values are drawn from paper PMC10164138 (Structure (London, England : 1993), 2023).
